Experimental data reported in a protein production outcome set (Wang et al. 2014).

Experiment: label from the status in PepcDB records

Row | Sequence | protein production
1 | TVEEVIEETPEKSELELANERADEFENKYLRAHAEMQNIQRRSSEERQQLQRYRSQDLAKAILPSLDNLERALAVEGLTDDVKKGLEMTRDSLIQALKEEG | not failed
2 | MEATKERVGLLDTILPPALADAGLEDCALPPESIQEAFRKAANAVKSRAASIFDHEEEDGCLADPIPETADKIIVGGDNERDTGPCLAGKGIEKLAESKQAGDLVVAGEGEEGKSCVDGLKDLDVEGIERSSEKKDQSDEDEEEEMKPILVEGFV | failed
3 | VSERKAMQKRLTRRERRFRMMFEGHSAPMLLIDEETGAIEQANAAAVEFYGYERDILMSMSIQDINQLPAEEVARERREAAEDGDEFLFEHELASGAVRTVRVLSAPIPNLDRAGTLLFSVIHD | failed
4 | MENVSDDRFAEMVWEAVSGGATLKDVHGIPQDMMEGLYAHAYDFYHKGRLDEAETFFRFLCIYDFYNPDYIMGLAAVCQLKKQFQKAVDLYAVAFALSKNDYRPVFFTGQCQLFMRKAAKARQCFELVCEQSGLEHHHHHH | failed
5 | KRYIRKEAADALKTMFDAAKKEGYELAAVSGYRSYDRQKVIFDNEVSLKGERKAKEAVAYPGESEHQTGLAMDISSRSNGFELNEAFGSTADGKWVQDNAYKYGFIIRYPKNKEDITKYEYEPWHLRYVGK | not failed
6 | MSLKITGVNIYLLKSGRLHPVLVEISTDEGITGAGEAGIAYGVGGTAAAGMIKDLSERFLIGKDPSRIEELWSTMYDHSFWAKNGGAIIFAGISAIEQALWDIKGKCLGVPVYELFGGKIRDRVRAYANGWYGAADTPDEFARAVERPLKEGYGALKFYPLAQRVGSALQHVTRRSMSAEAIELAYRRVKAVRDAAGPEIELMVDLSGGLTTDETIRFCRKIGELDICFVEEPCDPFDNGALKVISEQIPLPIAVGERVYTRFGFRKIFELQACGIIQPDIGTAGGLMETKKICAMAEAYNMRVAPHVCGSSLIETATLQLEANITNFMIHEHYPAFKADDGYVEVLENPPSISSGYFEMPNGPGLGAVLIKRNIEPYLWASCTEGHHHHHH | not failed
7 | MGIHQYFQSLSDLENIYRCPGKFKYQEHSVAEHSYKVTSIAQFFGAVEEDAGNEVNWRALYEKALNHDYSELFIGDIKTPVKYATTELREMLSEVEESMTKNFISREIPATFQPIYRHLLKEGKDSTLEGKILAISDKVDLLYESFGEIQKGNPENIFVEIYSEALATIYEYREMASVKYFLKEILPDMLAEKGIEKTELPQLTTEITTKALRDE | not failed
8 | MGSVQVKAHADEQGRAVVRASIEIAAPPSVVFGVILDCGRAARMSPGVKRCRVVSRAADGSEVREHTVKWGFFLPALQSRSRLSLQPDREIRFTCIGGDIRACDGFWRLEPLDGGMRTRVTYDLWATAPYAAPAGLVSSLMRRTVPQSLAALRRECEGLEHHHHHH | failed
9 | MTTFLQRDDFAVTARVLGALFYYSPESHETAPLVQALLNDDWQAQWPLDAEALAPVAAMFKTHSEESLPQAWQRLFIGPYALPSPPWGSVWLDRESVLFGDSTLALRQWMRENGIQFEMQQNEPEDHFGSLLLLAAWLAENDRHHECEQLLAWHLFPWSSRFLDVFIDHAGHPFYQALGQLARLTLAQWQAQLIIPVAVKPLFR | not failed
10 | MDLLLKGGWVVTQERVEQADIAVEGEKIAAIGPDLEARAAAVRDVTGKYILPGAIDAHVHYQMPIGELLTADDWFTGTRLAACGGVTTVIDYAEPAGPAEPLTEALAKRLEEAREQACVDYGLHQVVLPGQEEDTGELAKVIEQGVTSFKVFTTYKQCLGYAAIGRLLKQARRLGALVTVHCEDHDLVTARRRELEATGQTDPAYHANSRPAAAEVKAIEKVIRQAAAAGAPVYIVHVSTGGGAELIAAARARGQQVFGETCPHYLLLTEERYAGPDSRLFLMCPPLRTVKDNRILWQHLASGDLQVVATDHCSYSPEQKAAGTAFYNTPSGVPGTETLLPLLYSYGVRQGRLTLPQMVRVLATNPARLFGLYPRKGCLAPGSDADLVVFDPSQEVILKASDLHSAAAYTIFEGFALQGYVEATYLRGRLIYDLGRFLGRAGQGEFIPGKITVL | failed
11 | MKGNSFGEIISSEDIGLRKGADSSHEIITSIPSGARVNIIDKMSKDWYKVSYKDFTGYLQAKDIRVLGLEHHHHHH | failed
12 | MDVPTPPPAEIYLAIQLPNPLSILVNYLPVSVTPIETLRGLVSTLEPTAINMDEFMTWPDFVLPETPFRTYFTLLLERGARPAIYLEGVRLACNFITVAHGLTMLSSISPIDAYACFSHGLFLTATGNGREVEAVNATFWDLVPSFEAANTVGELVMYHISRLHAEGTRLWNRSWRFVVSPDCLGRCSYGACCRNCFFYWYARELCIFY | failed
13 | MALDEAPAEARPGSRAVELEIDGRSRIFDIDDPDLPKWIDEEAFRSDDYPYKKKLDREEYEETLTKLQIELVKVQFWMQATGKRVMAVFEGRDAAGKGGAIHATTANMNPRSARVVALTKPTETERGQWYFQRYVATFPTAGEFVLFDRSWYNRAGVEPVMGFCTPDQYEQFLKEAPRFEEMIANEGIHLFKFWINIGREMQLKRFHDRRHDPLKIWKLSPMDIAALSKWDDYTGKRDRMLKETHTEHGPWAVIRGNDKRRSRINVIRHMLTKLDYDGKDEAAIGEVDEKILGSGPGFLR | not failed
14 | MTEKRRRLPRPEKAILWPASYLHHRSVTQQLPIMSTPHTDFFGLTIPFMQLLGVVPEHSGNGTARTRLPARADLVNSRGDIHGGTLMSVLDFTLGAAIRGDTPEVGVATIDMNTSFMSPGRGDLVIETRCLRRGASIAFCEGEIRDSAGELVAKATATFKIIQRRPGGD | failed
15 | MAKLAGQKVRIGGWVKTGRQQGKGTFAFLEVNDGSCPANLQVMVDSSLYDLSRLVATGTCVTVDGVLKIPPEGKGLKQSIELSVETVIAVGTVDP | not failed
16 | MEKYNSLSDFLKEFYIPTYVLSAETEEEEEEESRPTPASPVLVFINSKSGGQLGGELILTYRSLLNHNQVFDLDQETPDKVLRRIYLNLERLKDDDFARQIREKLKIIVAGGDGTAGWLLGVVCDLKLSHPPPIATVPLGTGNNLPFAFGWGKKNPGTDRTAVESFLEQVLKAKVMKIDNWHILMRMKTPKEGGSCDPVAPLELPHSLHAFHRVSPTDELNKEGCHTFRGGFWNYFSLGMDAQISYAFHSERKLHPEKFKNQLVNQSTYVKLGCTQGWFCASLFHPASRNIAQLAKVKIATRNGQWQDLHIPHSIRSIVCLNLPSFSGGLNPWGTPNPRKQRDRGLTPPFVDDGLIEVVGFRNAWHGLVLLAPNGHGTRLAQANRIRFEFHKGATDHTFMRMDGEPWKQPLPLDDETVMVEISHLGQVNMLATHDCRSRSVFDPSTPRHQDGAEDYDDNEDDSVAEGEEFRKFGAADTFKIPDEGEHSNKKGRASRRRNSNVHGWSHVL | not failed
17 | DETIHLERGENLFEIHINKVTFSSEVLQASGDKEPVTFCTYAFYDFELQTTPVVRGLHPEYNFTSQYLVHVNDLFLQYIQKNTITLEVHQAYSTEYETIAACQLKFHEILEKSGRIFCTASLIGTKGDIPNFGTVEYWFRLRV | not failed
18 | MTFPPPDPAVAPPAEPASRAPHGRPATSGQSASATTVGSGAPLPASSALASTPSQAGPTGRKRPGQSTVTARTGAPNLPDPLGDNVVGERAVVPPIQQGKSRTALTNELNAEPVAGTVPAAPGGDLFIDAVLAQSYRHFFGPTSQPAVPPRQQVISITRLMEKLAYLKPADQALVREAFQFSDEAHLGQYRQSGEPYITHPVAVAELCADWKLDVQSIMAALLHDVMEDQGITKSELAEKFGPKVSELVDGLTKLDKLEFQSREQAQAESFRKMLLAMARDVRVILVKLADRTHNMRTLDFVPPEKRRRIALETMEIYAPIAHRLGLNTIYRELQELSFKVGSPFRYATLEKAVKAARGNRREVVKRILEAAQSALAGAGIVAELSGREKTLYSIYRKMHDKQLSFSQVLDVYGFRVVVETQMHCYMAMGALHGLYKPMPGKFKDYIAIPKINGYQSLHTTLVGPFGTPVEFQIRTRGMHQIAEAGVAAHWMYKHQADHANDIQQQAHQWLQSLLDIQSQTGDSQEFLEHVKIDLFPDAVYVFTPKGHIRALPRGATALDFAYAVHSDLGNQCVAVKINNELLPLRTELKSGDIVEVVTAPYSKPNPSWLAFVRTGKARAAIRHYLKTTKLDEAIQLGERLLEQSTRQLGIELKAVPQSVWDRMIQWTGNKLKEDIFADLALGRRVPAVVARRMEILLQELSGDVDSALLAAVQTFAGEDAPAVPITGDEGMSMIFSACCRPIPGDSIVGYLGKGEGLQIHVQDCKVAKRLHSKDPEHWIEVMWAKKTTRAFDVSIKIMVRNVKGIVARVAADLTSADANVAHVAMEPQQGGHQEATYMQFVIQVQNRLHLANVMRALRRNPDVIRIFRDRNDG | failed
19 | MTGRIVHFEIPFDDGDRARAFYRDAFGWAIAEIPDMDYSMVTTGPVGESGMPDEPGYINGGMMQRGEVTTPVVTVDVESIESALERIESLGGKTVTGRTPVGNMGFAAYFTDSEGNVVGLWETAR | not failed
20 | ANLISPVCDMGSAVTAPVYAAILAYRDAVTQILGAPADFAQMMADEAISQILDLMRNEGIKNMEDKLNPKALTGTADSMCFGPLADILPASLKVLEKHANENKCECGCSIKP | failed
21 | MARKCEITGKKTMFGNNVPRKGLAKKKGGAGQHIGVKTKRTFKVNLINKKFFIPNLGRSVSIKVSANALRSISKIGLDAFLKKNCKKIENFLLEHHHHHH | failed
22 | MEKSAGRGRPSVSVERIVATALEAVDEVGAQAFNMRMLAERLGSGTATLYRHFASKDEILIYVVDSVLGELLADQPEAVELVPQGQGSEGYSWQKACASGAERLYGVLRRHPGILPLLVSQIPIGPNGLKRREQGIALFLANGFPAELAARAYTSVAHYVLGFAIQQHSSASSEAAEGEELVEFFAALDASEYPAIATAGRHLPGISVEEEFRFGLKLIIDGLELAASAWRKADGC | failed
23 | MSLKKTILCFGEALIDMLAQPLVKKGMPRAFLQCAGGAPANVAVAVARLGGAVQFVGMLGSDMFGDFLFDSFAEAGVVTDGIVRTSTAKTALAFVALDAHGERSFSFYRPPAADLLFRVEHFQDASFSDALIFHACSNSMTDADIAEVTFEGMRRAQAAGAIVSFDLNFRPMLWPNGENPASRLWKGLSLADVVKLSSEELDYLANTLAADANAVIQQLWQGRAQLLLVTDAAGPVHWYTRTAGGEVPTFRVQVQDSNAAGDAFVGGMLYTFAQQFDDAAALIDFCHDPESIVSTLRFAAAVGALAVTRQGAFTAMPMLSEVLSLIQEQSEGHHHHHH | not failed
24 | MKIIFSASPANRAAAYALRQAVFVEERGISADVEFDVKDTDQCEYAVLYLQPDLPITTLRLEPQADHVMRFGRVCTRKAYRGHGWGRQLLTAAEEWATQRGFTHGEIHGELTAQRFYELCGYRVTAGPYDEDGAPVVIMHKQ | failed
25 | MKITILSGGTGTPKLIQGFKEILPNEDISVIVNTGEDTYIGDIYLSPDIDTVLYTFSNLINDETWYGLKGDTFFCHEQLKNFGFDEVLRIGDKDRALKMHKTSLLKKGVPMSEIVDIERKSLSINSKIYPMSDEKIESKVLIEENNEKILLKFHDFWVSRRGNAKVLDIFYENSNYAKAADGVLKAIEESDFVIIGPSNPITSIGPILSISEIKDALKEKLVFAVSPIVGENPVSGPAGTLMHAKGYPVNAVGVYEYYKDIVDVLVLDNSDINKKKEMNCEVLYANTIMKTIDDKITLARNILDYYKSR | failed
26 | MAKVVKLEPISRETTVNTNDNLLSALLDSELHVLKECGGRGMCATCHVYIKEGMESLSPINKREQRTLEVITTANATSRLACQARVLGPGVVVELPSGMYVNAVEDIESLIGRRAEQDILHPLDGRVLVEAGKLITRTMITQLKDTQVQVGQYFANTSDALEHHHHHH | not failed
27 | MKIIFSASPANRAAAYALRQAVFVEERGISADVEFDVKDTDQCEYAVLYLQPDLPITTLRLEPQADHVMRFGRVCTRKAYRGHGWGRQLLTAAEEWATQRGFTHGEIHGELTAQRFYELCGYRVTAGPYDEDGAPVVIMHKQLL | not failed
